Laboratory results: publication PMC7734621

Molecular target: Minerva virus protease (MVpro), NS6 3C-like protease of a GII.4 norovirus (Minerva virus (norovirus GII.4, 2006b variant))
Assay: SEC

Minerva virus protease (MVpro), NS6 3C-like protease of a GII.4 norovirus (enzyme)
stoichiometry N: 2
